Publication PMC11493965, “Ethane-oxidising archaea couple CO2 generation to F420 reduction” (Nature Communications, 2024)

Target: ζ subunit (F420-reductase subunit) of the CODH component of the ACDS from Candidatus Ethanoperedens thermophilum (Candidatus Ethanoperedens thermophilum)
Test: crystal structure; α2ε2ζ2 ACDS subcomplex purified natively as one complex; sitting drop, anaerobic, 20 °C, 20% PEG 6000, 100 mM MES pH 6.0, 200 mM ammonium chloride, 1 mM FAD and FMN added; refined to 1.89 Å

stoichiometry N: 2
Substance: ζ subunit (F420-reductase subunit) of the CODH component of the ACDS from Candidatus Ethanoperedens thermophilum (natural protein)
